Assay results from paper PMC3678129.

Substrate: CCn1c(=NN=c2sc3cc(S(=O)(=O)O)ccc3n2CC)sc2cc(S(=O)(=O)O)ccc21
Test: purified protein
Settings: H2O2 25 mM (saturating), no added Ca2+, 100 mM Tris-HCl pH 7.0

B1: Euphorbia characias latex peroxidase (ELP) (Euphorbia characias) (protein)
chain: QTKPPIVNGLSWTFYKSSCPKVESIIQKELKKLFKKDVEQAAGLLRLHFHDCFVLGCDGSVLLNGSAGGPSEQSELPNLSLRKQAFKIVNDLRALVHKECGPVVSCSDIVAIAARDSVVLTGGPKYDVPLGRRDGVKFAEVNATFEHLVGPTANVTTILAKLARKGLDTTDAVSLSGGHTIGIGHCTSFTERLYPSQDPTLDKTFANNLKRTCPNVNTENSTFLDLRTPNEFDNRYYVDLMNRQGLFTSDQDLYTDKRTRQIVIDFAVNQTLFYEKFIIGMIKMGQLEVVTGNQGEIRNDCSFRNSDNYLVSVTDEESGSSSELR
- Km: 550 ± 20 µM
- kcat: 170 ± 11 s⁻¹
- kcat/Km: 309000 M⁻¹ s⁻¹
